Experimental data as given in US20100322946A1 (Genentech, published 2010).
Where a chain is given by its changes, count along the chain named. “And” between values parts separate entries of the source, which are not always exact repeats. Identical values can stand only once. Like-named read-outs stand apart in the source and are kept apart here.

Experiments:
human VEGF109 [1] = molecular target: T1, human VEGF109 (human, UniProt P15692 214-315, limits assumed); assay: BIAcore SPR
T1 construct: also called hVEGF109
T1 sequence (looked up): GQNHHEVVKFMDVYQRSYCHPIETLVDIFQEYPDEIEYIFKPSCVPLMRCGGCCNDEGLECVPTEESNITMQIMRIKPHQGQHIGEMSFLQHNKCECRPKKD

[2] = molecular target: T2, murine VEGF (form not stated) (mouse, UniProt Q00731-2 27-190); assay: BIAcore SPR, mVEGF108
T2 construct: also called mVEGF
T2 sequence (looked up): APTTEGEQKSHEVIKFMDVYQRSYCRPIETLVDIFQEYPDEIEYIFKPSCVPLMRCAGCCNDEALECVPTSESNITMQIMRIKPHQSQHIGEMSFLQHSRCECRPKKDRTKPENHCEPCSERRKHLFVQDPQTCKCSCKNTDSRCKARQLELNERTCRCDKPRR

[3] = molecular target: T3, human VEGF (form not stated) (human, UniProt P15692-4 27-191); assay: competitive phage ELISA
T3 construct: also called hVEGF; hVEGF-A

[4] = molecular target: T3, human VEGF (form not stated); assay: competitive phage ELISA; remark: listed apart in the source
[5] = molecular target: T4, HER2 extracellular domain (human, UniProt P04626 23-652); assay: competition ELISA of phage-displayed Fab
T4 construct: extracellular domain; also called HER2-ECD; Her2-ECD

[6] = molecular target: T5, VEGF109 (receptor-binding domain of human VEGF, residues 8-109) (human, UniProt P15692 214-315); assay: calculated from ΔCp
T5 construct: also called hVEGF109
T5 sequence (looked up): T1 sequence (looked up)

[7] = molecular target: T5, VEGF109 (receptor-binding domain of …); assay: calculated from the SPR KD
[8] = molecular target: T5, VEGF109 (receptor-binding domain of …); assay: isothermal titration calorimetry
[9] = molecular target: T5, VEGF109 (receptor-binding domain of …); assay: calculated from ΔStot, ΔSdesolv and ΔSrt
human VEGF109 [10] = molecular target: T1, human VEGF109; assay: SPR, captured IgG, antigen in solution, 30°C
human death receptor 5 = molecular target: T6, human death receptor 5 (human, UniProt O14763 56-210); assay: ELISA: antigen immobilized, hIgG 15 µg/mL, OD450; bars assigned by their left-to-right order
T6 construct: also called hDR5; DR5

hVEGF-C [11] = molecular target: T7, hVEGF-C (human, UniProt P49767 103-227); assay: as above
T7 construct: also called vascular endothelial growth factor C
T7 sequence (looked up): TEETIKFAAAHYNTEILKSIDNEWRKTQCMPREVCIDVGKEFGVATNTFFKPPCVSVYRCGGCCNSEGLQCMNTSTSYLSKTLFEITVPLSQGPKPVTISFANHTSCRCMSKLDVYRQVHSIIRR

hVEGF-D [12] = molecular target: T8, hVEGF-D (human, UniProt O43915 93-201); assay: as above
T8 construct: also called vascular endothelial growth factor D
T8 sequence (looked up): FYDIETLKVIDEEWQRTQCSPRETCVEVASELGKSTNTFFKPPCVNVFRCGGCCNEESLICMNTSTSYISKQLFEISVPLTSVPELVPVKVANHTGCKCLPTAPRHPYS

[13] = molecular target: T9, epidermal growth factor receptor extracellular domain (human, UniProt P00533 25-645); assay: as above
T9 construct: extracellular domain; also called hEGFR

bovine serum albumin = molecular target: T10, bovine serum albumin (bovine, UniProt P02769 25-607); assay: as above
T10 construct: also called BSA

HER3 ECD = molecular target: T11, HER3 ECD; assay: as above
T11 construct: also called ErbB3/HER3 extracellular domain

[14] = molecular target: T4, HER2 extracellular domain; assay: BIAcore SPR
hVEGF-C [15] = molecular target: T7, hVEGF-C; assay: ELISA
hVEGF-D [16] = molecular target: T8, hVEGF-D; assay: ELISA
[17] = molecular target: T4, HER2 extracellular domain; assay: Her2 in solution (varied) against DR5 coat
human VEGF109 [18] = molecular target: T1, human VEGF109; assay: BIAcore SPR, steady state analysis
[19] = molecular target: T3, human VEGF (form not stated); assay: competitive phage ELISA; remark: listed apart in the source
[20] = molecular target: T4, HER2 extracellular domain; assay: competitive phage ELISA

B1: 3_7 Fab (Fab, V domains shown)
VH: not shown
VL: DIQMTQSPSSLSASVGDRVTITCRASQYIWRYVAWYQQKPGKAPKLLIYWGSSLYSGVPSRFSGSGSGTDFTLTISSLQPEDFATYYCQQGLWYSPPTFGQGTKVEIK
Kd (human VEGF109 [1]): 3 nM
koff (human VEGF109 [1]): 0.0025 s⁻¹
kon (human VEGF109 [1]): 800000 M⁻¹ s⁻¹
Kd [2]: 78 nM
koff [2]: 0.0056 s⁻¹
kon [2]: 72000 M⁻¹ s⁻¹

B2: H7 (scFv, V domains shown)
VH: not shown
VL: B1 VL with Y28N, I29V, R31D, Y32W, W50P, G51A, L92W, W93Y, Y94I, S95A
notes: not shown: scFv linker carrying the gD tag and the phage coat fusion
IC50 [3]: 60 nM

B3: 3-7 hIgG (antibody, V domains shown)
VH: not shown
VL: B1 VL
notes: also called 3-7 anti-hVEGF
Kd (human VEGF109 [1]): 7 nM
koff (human VEGF109 [1]): 0.0042 s⁻¹
kon (human VEGF109 [1]): 580000 M⁻¹ s⁻¹
Kd [2]: 30 nM
koff [2]: 0.015 s⁻¹
kon [2]: 500000 M⁻¹ s⁻¹

B4: 3-4 (phage) (scFv, V domains shown, not shown: large carriers; small tags and cut ends)
VH: not shown
VL: B1 VL with Y28E, I29V, W30Y, R31S, W50P, G51A, L92F, Y94I, S95G
notes: also called c3-4
IC50 [4]: 32 nM

B5: 3-7 (phage) (scFv, V domains shown, not shown: large carriers; small tags and cut ends)
VH: not shown
VL: B1 VL
IC50 [4]: 16 nM

B6: 20.49 (Fab, V domains shown)
VH: not shown
VL: DIQMTQSPSSLSASVGDRVTITCRASVDLPKSVSGYVAWYQQKPGKAPKLLIYWGSFLYSGVPSRFSGSGSGTDFTLTISSLQPEDFATYYCQQHFTSPPTFGQGTKVEIKR
IC50 [5]: 2.6 nM

B7: 35.95 (Fab, V domains shown)
VH: not shown
VL: B6 VL with S26I, V27E, D28N, F96Y
IC50 [5]: 4.3 nM

B8: bH1-44 Fab (Fab, V domains shown)
VH: EVQLVESGGGLVQPGGSLRLSCAASGFNISGTYIHWVRQAPGKGLEWVARIYPSEGYTRYADSVKGRFTISADTSKNTAYLQMNSLRAEDTAVYYCSRWVGVGFYAMDYWGQGTLVTVSS
VL: B6 VL with V27Q, D28N, L29I, P30A, S32T, V33I, F96Y, T97S
notes: also called bH-44
ΔSdesolv [6]: 9.6e-05 kcal/mol
ΔG [7]: -11.8 kcal/mol
ΔH [8]: -7.1 kcal/mol
ΔSconf [9]: -7.2e-05 kcal/mol

B9: 20.80 (Fab, V domains shown)
VH: not shown
VL: B6 VL with V27E, L29I, V33I, T97S
IC50 [5]: 2.2 nM

B10: bH1-81 IgG (bispecific antibody, V domains shown)
VH: not shown
VL: B6 VL with V27Q, D28N, L29I, P30A, S32T, V33I, F96Y, T97S
notes: also called bH1-81 antibody; not shown: rest of the human IgG heavy-chain constant region
Kd (human VEGF109 [10]): 41 nM
binding result (human death receptor 5): no binding (tested: 15 µg/mL)
binding result (hVEGF-C [11]): no binding (tested: 15 µg/mL)
binding result (hVEGF-D [12]): no binding (tested: 15 µg/mL)
binding result [13]: no binding (tested: 15 µg/mL)
binding result (bovine serum albumin): no binding (tested: 15 µg/mL)
binding result (HER3 ECD): no binding (tested: 15 µg/mL)

B11: 35.45 (Fab, V domains shown)
VH: not shown
VL: B6 VL with V27E, L29I, S32T, T97S
IC50 [5]: 1.1 nM

B12: 3-1 (Table 2) (Fab, V domains shown)
VH: not shown
VL: DIQMTQSPSSLSASVGDRVTITCRASQNVWDWVAWYQQKPGKAPKLLIYPASSLYSGVPSRFSGSGSGTDFTLTISSLQPEDFATYYCQQGWYIAPPTFGQGTKVEIKR
notes: also called 3-1 Fab
binding result [14]: no binding
Kd [2]: 105 nM
koff [2]: 0.0036 s⁻¹

B13: 3-1 hIgG (antibody, V domains shown)
VH: not shown
VL: B12 VL
notes: also called 3-1 IgG; not shown: rest of the human IgG heavy-chain constant region
binding result (hVEGF-C [15]): no binding
binding result (hVEGF-D [16]): no binding
binding result [14]: no binding
Kd [2]: 44 nM
koff [2]: 0.016 s⁻¹
binding result (human death receptor 5): no binding (tested: 15 µg/mL)
binding result [13]: no binding (tested: 15 µg/mL)
binding result (bovine serum albumin): no binding (tested: 15 µg/mL)

B14: D1 hIgG (bispecific antibody, V domains shown)
VH: not shown
VL: DIQMTQSPSSLSASVGDRVTITCRASQNVSKHVAWYQQKPGKAPKLLIYWGSYLYSGVPSRFSGSGSGTDFTLTISSLQPEDFATYYCQQSYSGPPTFGQGTKVEIK
notes: also called D1 (anti-hDR5/Her2)
IC50 (read off the curve) [17]: ~50 nM

B15: 35.74 (Fab, V domains shown)
VH: not shown
VL: DIQMTQSPSSLSASVGDRVTITCRAIQDIPKTITGYVAWYQQKPGKAPKLLIYWGSFLYSGVPSRFSGSGSGTDFTLTISSLQPEDFATYYCQQHFNSPPKFGQGTKVEIK
IC50 [5]: 0.7 nM

B16: H4_N (bispecific antibody, V domains shown)
VH: not shown
VL: DIQMTQSPSSLSASVGDRVTITCRASQNIRSGSVAWYQQKPGKAPKLLIYWASYLYSGVPSRFSGSGSGTDFTLTISSLQPEDFATYYCQQHYTTPPTFGQGTKVEIK
notes: also called H4_N hIgG; H4_N Fab
Kd [14]: 9.87 nM and 6 nM
koff [14]: 0.0013 s⁻¹
kon [14]: 140000 M⁻¹ s⁻¹ and 230000 M⁻¹ s⁻¹
Kd (human VEGF109 [18]): 550 nM

B17: H4 (phage) (scFv, V domains shown)
VH: not shown
VL: B16 VL with S31T, A52G
IC50 [19]: 115 nM
IC50 [20]: 0.54 nM
